Laboratory results as given in patent publication US20190227052A1 (published 2019).
Residue numbers refer to the chain shown, from its start.

T1: human NRP1 protein (human, UniProt O14786 22-856, limits assumed)
T1 construct: also called hNRP1 protein; neuropilin 1
T1 sequence (looked up): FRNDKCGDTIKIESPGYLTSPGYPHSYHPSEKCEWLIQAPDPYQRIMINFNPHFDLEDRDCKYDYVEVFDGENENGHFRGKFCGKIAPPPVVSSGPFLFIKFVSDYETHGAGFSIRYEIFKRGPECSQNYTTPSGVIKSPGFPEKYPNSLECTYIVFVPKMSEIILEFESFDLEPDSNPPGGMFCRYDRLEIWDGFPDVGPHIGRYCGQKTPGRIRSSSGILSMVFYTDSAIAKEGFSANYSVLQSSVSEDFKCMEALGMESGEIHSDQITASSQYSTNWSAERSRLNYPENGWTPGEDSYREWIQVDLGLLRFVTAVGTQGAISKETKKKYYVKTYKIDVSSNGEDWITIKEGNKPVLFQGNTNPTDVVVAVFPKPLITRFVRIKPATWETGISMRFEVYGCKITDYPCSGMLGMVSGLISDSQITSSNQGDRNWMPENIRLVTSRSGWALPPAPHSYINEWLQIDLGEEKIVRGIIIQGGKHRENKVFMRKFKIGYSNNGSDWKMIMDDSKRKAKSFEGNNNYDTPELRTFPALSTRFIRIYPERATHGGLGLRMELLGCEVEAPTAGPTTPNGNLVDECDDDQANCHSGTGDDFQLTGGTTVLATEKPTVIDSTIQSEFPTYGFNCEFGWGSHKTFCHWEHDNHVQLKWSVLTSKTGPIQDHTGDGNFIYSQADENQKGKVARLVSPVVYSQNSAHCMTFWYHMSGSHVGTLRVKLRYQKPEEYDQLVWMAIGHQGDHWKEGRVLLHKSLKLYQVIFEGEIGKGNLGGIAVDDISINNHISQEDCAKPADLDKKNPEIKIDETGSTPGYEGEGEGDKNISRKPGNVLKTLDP

B1: 3H10 scFv (scFv, V domains shown)
VH: EVQLLESGGGLVQFQQSLRLSQAASQFTFSSYYMSWVRQAFGKGLEWVSAISPGSSNKYYADSVKGRFTISRDNSKNTLYLQMNELRAEDTAVYYCARRKYMFDYWGQGTLVTVSS
VL: GSVLTQPPSASGTPGQRVTISCTGESSNIGNNDVYWYQQLPGTAFKLLIYSQSNRPSGMPDRFSGSKSGTSASLAISGLRSEDEADYYCASWDSSLSGYVFGGGTKLTVTL
B2: 1A03 scFv (scFv, V domains shown)
VH: B1 VH with Q15G, Q16G, Q26G, P53F, K65Q, Y101K, M102S
VL: QSVLTQFFSASGTPGQRVTISCSGFSSNIGNNDVSWYQQLFGTAPKLLIYSCNNRPSGVPDRFSGSKSGTSASLAISGLRSSDEADYYCGAWVASLSAYVFGGGTKLTVTL

Biological target: T1, human NRP1 protein
Experiment: SPR, Biacore T100

| Binder | Kd [nM] |
| --- | --- |
| B1 | 295 |
| B2 | 89.4 |
